How the values were obtained:
Test in all cases: cell-based or functional assay
[1] = molecular target: SVPB5 (envelope of the HIV-1 pseudovirus) (HIV-1)
[2] = molecular target: BaL.01 (envelope of the HIV-1 pseudovirus) (HIV-1)
[3] = molecular target: HIV2 (envelope of the indicator virus, without sCD4) (HIV-2)
[4] = molecular target: SF162 (envelope of the HIV-1 pseudovirus) (HIV-1)
[5] = molecular target: SVPB14 (envelope of the HIV-1 pseudovirus) (HIV-1)
[6] = molecular target: JRFL (envelope of the HIV-1 pseudovirus) (HIV-1)
[7] = molecular target: ADA (envelope of the HIV-1 pseudovirus) (HIV-1)
[8] = molecular target: MuLV (envelope of the control pseudovirus) (MuLV)
[9] = molecular target: SVPB16 (envelope of the HIV-1 pseudovirus) (HIV-1)
[10] = molecular target: SVPB17 (envelope of the HIV-1 pseudovirus) (HIV-1)
[11] = molecular target: SVPB12 (envelope of the HIV-1 pseudovirus) (HIV-1)

Substance	IC50 (ug/ml) neutralization [1]	IC50 (ug/ml) neutralization [2]	IC50 (ug/ml) neutralization [3]	IC50 (ug/ml) neutralization [4]	IC50 (ug/ml) neutralization [5]	IC50 (ug/ml) neutralization [6]	IC50 (ug/ml) neutralization [7]	IC50 (ug/ml) neutralization [8]	IC50 (ug/ml) neutralization [9]	IC50 (ug/ml) neutralization [10]	IC50 (ug/ml) neutralization [11]
CD4bs mAb b12 (antibody)	18 µg/mL	0.2 µg/mL	> 30 µg/mL	< 0.1 µg/mL	0.3 µg/mL	< 0.1 µg/mL	1.2 µg/mL	> 30 µg/mL	12 µg/mL	> 30 µg/mL	> 30 µg/mL
E51 (antibody)	> 30 µg/mL	> 30 µg/mL	> 30 µg/mL	45 µg/mL	> 30 µg/mL	> 30 µg/mL	> 30 µg/mL	> 30 µg/mL	> 30 µg/mL	> 30 µg/mL	> 30 µg/mL
HIV-1 CD4i mAb 17b (antibody)	> 30 µg/mL	> 30 µg/mL	10 µg/mL	30 µg/mL	> 30 µg/mL	> 30 µg/mL	> 30 µg/mL	> 30 µg/mL	> 30 µg/mL	> 30 µg/mL	> 30 µg/mL
HIV-1 CD4i mAb 19e (antibody)	> 30 µg/mL	> 30 µg/mL	> 30 µg/mL	> 30 µg/mL	> 30 µg/mL	> 30 µg/mL	> 30 µg/mL	> 30 µg/mL	> 30 µg/mL	> 30 µg/mL	> 30 µg/mL
broadly neutralizing mAb 2G12 (antibody)	8 µg/mL	1 µg/mL	> 25 µg/mL	0.5 µg/mL	> 25 µg/mL	0.3 µg/mL	12 µg/mL	> 25 µg/mL	> 25 µg/mL	> 25 µg/mL	0.3 µg/mL
